According to patent US20040120923A1 (ARES TRADING S A, published 2004):

Target: T1, IL-18Rβ extracellular domain (his6-tagged, produced in Cos cells) (UniProt O95256 20-356, limits assumed)
T1 construct: extracellular domain; also called IL-18Rβ-ECD; signalling chain of IL-18R
T1 sequence (looked up): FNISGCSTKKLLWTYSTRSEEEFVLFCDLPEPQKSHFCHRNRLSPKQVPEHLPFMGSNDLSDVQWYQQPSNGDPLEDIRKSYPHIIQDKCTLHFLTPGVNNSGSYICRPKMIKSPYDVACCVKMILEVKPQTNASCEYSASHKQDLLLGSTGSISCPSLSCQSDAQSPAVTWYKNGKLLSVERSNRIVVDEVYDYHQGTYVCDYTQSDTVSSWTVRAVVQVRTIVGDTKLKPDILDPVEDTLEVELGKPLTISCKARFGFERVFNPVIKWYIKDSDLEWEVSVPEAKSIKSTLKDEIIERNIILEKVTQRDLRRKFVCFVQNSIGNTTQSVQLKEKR
Assay: chemical cross-linking of the two extracellular domains without ligand, SDS-PAGE, Western blot with anti-his6 mAb against his6-tagged IL-18Rβ

- binding result: no binding
B1: IL-18Rα extracellular domain (produced in Cos cells) (receptor, UniProt Q13478 22-329, looked up)
chain: CTSRPHITVVEGEPFYLKHCSCSLAHEIETTTKSWYKSSGSQEHVELNPRSSSRIALHDCVLEFWPVELNDTGSYFFQMKNYTQKWKLNVIRRNKHSCFTERQVTSKIVEVKKFFQITCENSYYQTLVNSTSLYKNCKKLLLENNKNPTIKKNAEFEDQGYYSCVHFLHHNGKLFNITKTFNITIVEDRSNIVPVLLGPKLNHVAVELGKNVRLNCSALLNEEDVIYWMFGEENGSDPNIHEEKEMRIMTPEGKWHASKVLRIENIGESNLNVLYNCTVASTGGTDTKSFILVRKADMADIPGHVFTR
notes: extracellular domain; It is glycosylated (Cos cell product); also called IL-18Rα-ECD
